Measured values published in PMC3984077.

Target: HasSCTD, the last 78 residues of the antisigma factor HasS of Serratia marcescens (Serratia marcescens) (UniProt Q79AD3)
Assay: NMR titration; 1H-15N HSQC, one partner 15N-labelled in turn, peak intensities before and after adding the unlabelled partner; 250 µM HasSCTD with 200, 400 or 800 µM signaling domain, or 100 µM 15N signaling domain with 250 µM HasSCTD; control with 400 µM periplasmic domain; sodium phosphate pH 7, 50 mM NaCl, 0.05% Zw, 15% D2O; 20°C

**Q.** Which reduction of the overall HSQC peak intensity of 15N HasSCTD does the source give for “signaling domain of the TonB-dependent outer membrane transporter HasR (from UniProt Q79AD2) (domain or fragment)” here?
**A.** Its reduction of the overall HSQC peak intensity of 15N HasSCTD is 35%.
